± gives the standard deviation of the averaged measurements.
B1: library; a variant is named by its letters at N, in order (parent)
chain: GCUGUCACCGGUGCUUGGUACGUUAUAUUCAGCCGGUCUGAUGAGUCUNNNNNNAGACGAAACAGC

Columns and labels:
(6R,S)-folinic acid [1] = variants of: B1; assay: normalized RNA/DNA level without ligand (relative to sTRSVctl = 100) (log10 (% of sTRSVctl)); HEK293T overexpressing SLC46A1; higher = less ribozyme self-cleavage, higher mRNA level; conditions: without (6R,S)-folinic acid; ligand present: no
Outline: (§1)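 Ribozyme switch library plasmids linked to reporters were introduced into HEK293T cells at 4 µg per 6-well well, with ligand, if any, added 1 h before. Total RNA was extracted with EDTA 72 h later, reverse-transcribed, amplified, barcoded and sequenced. RNA level was computed from RNA over DNA reads relative to a spiked-in non-cleaving sequence or the top sequences, then scaled and log-transformed. The top set was 25 sequences, values were ×100 and log10, and the cutoff was ≥100 DNA reads.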

(6R,S)-folinic acid [2] = variants of: B1; assay: normalized RNA/DNA level with ligand (relative to sTRSVctl = 100) (log10 (% of sTRSVctl)); HEK293T overexpressing SLC46A1; ligand concentration (+) RNA-Seq: 6 mM; higher = less ribozyme self-cleavage, higher mRNA level; conditions: with (6R,S)-folinic acid; ligand present: yes
Outline: as §1

Variant | normalized RNA/DNA level without ligand (log10) ((6R,S)-folinic acid [1]) | normalized RNA/DNA level with ligand (log10) ((6R,S)-folinic acid [2])
GCUGUCACCGGUGCUUGGUACGUUAUAUUCAGCCGGUCUGAUGAGUCUACGCCAAGACGAAACAGC [ACGCCA] | 2.037 ± 0.012 | 2.02 ± 0.035
GCUGUCACCGGUGCUUGGUACGUUAUAUUCAGCCGGUCUGAUGAGUCUCGUCGGAGACGAAACAGC [CGUCGG] | 2.01 ± 0.026 | 2.08 ± 0.049
GCUGUCACCGGUGCUUGGUACGUUAUAUUCAGCCGGUCUGAUGAGUCUUGGGAAAGACGAAACAGC [UGGGAA] | 1.8778 ± 0.0006 | 1.98 ± 0.028
GCUGUCACCGGUGCUUGGUACGUUAUAUUCAGCCGGUCUGAUGAGUCUCAAGUCAGACGAAACAGC [CAAGUC] | 2.04 ± 0.021 | 2.02 ± 0.037
GCUGUCACCGGUGCUUGGUACGUUAUAUUCAGCCGGUCUGAUGAGUCUUCAGCCAGACGAAACAGC [UCAGCC] | 2.044 ± 0.0032 | 1.99 ± 0.039
GCUGUCACCGGUGCUUGGUACGUUAUAUUCAGCCGGUCUGAUGAGUCUUGCUUAAGACGAAACAGC [UGCUUA] | 2.003 ± 0.0057 | 2.03 ± 0.026
GCUGUCACCGGUGCUUGGUACGUUAUAUUCAGCCGGUCUGAUGAGUCUUCCAUGAGACGAAACAGC [UCCAUG] | 1.857 ± 0.005 | 1.97 ± 0.053
GCUGUCACCGGUGCUUGGUACGUUAUAUUCAGCCGGUCUGAUGAGUCUGGAAAUAGACGAAACAGC [GGAAAU] | 1.98 ± 0.025 | 2.04 ± 0.027
GCUGUCACCGGUGCUUGGUACGUUAUAUUCAGCCGGUCUGAUGAGUCUUAGAUUAGACGAAACAGC [UAGAUU] | 1.98 ± 0.0065 | 2.01 ± 0.047
GCUGUCACCGGUGCUUGGUACGUUAUAUUCAGCCGGUCUGAUGAGUCUGCCGUCAGACGAAACAGC [GCCGUC] | 2.08 ± 0.031 | 2.081 ± 0.0053
GCUGUCACCGGUGCUUGGUACGUUAUAUUCAGCCGGUCUGAUGAGUCUUGUUCGAGACGAAACAGC [UGUUCG] | 1.761 ± 0.017 | 1.96 ± 0.031
GCUGUCACCGGUGCUUGGUACGUUAUAUUCAGCCGGUCUGAUGAGUCUCUUAUCAGACGAAACAGC [CUUAUC] | 2.089 ± 0.009 | 2.08 ± 0.033
GCUGUCACCGGUGCUUGGUACGUUAUAUUCAGCCGGUCUGAUGAGUCUUUGAUCAGACGAAACAGC [UUGAUC] | 2.051 ± 0.0013 | 2.01 ± 0.022
GCUGUCACCGGUGCUUGGUACGUUAUAUUCAGCCGGUCUGAUGAGUCUAUAAUUAGACGAAACAGC [AUAAUU] | 1.99 ± 0.025 | 2.03 ± 0.038
GCUGUCACCGGUGCUUGGUACGUUAUAUUCAGCCGGUCUGAUGAGUCUUCGCCUAGACGAAACAGC [UCGCCU] | 2.08 ± 0.043 | 2.082 ± 0.016
GCUGUCACCGGUGCUUGGUACGUUAUAUUCAGCCGGUCUGAUGAGUCUUCCGCCAGACGAAACAGC [UCCGCC] | 2.03 ± 0.021 | 2.0083 ± 0.00058
GCUGUCACCGGUGCUUGGUACGUUAUAUUCAGCCGGUCUGAUGAGUCUGAAAAAAGACGAAACAGC [GAAAAA] | 1.986 ± 0.0038 | 2.01 ± 0.038
GCUGUCACCGGUGCUUGGUACGUUAUAUUCAGCCGGUCUGAUGAGUCUCAAACGAGACGAAACAGC [CAAACG] | 2.02 ± 0.0085 | 2.03 ± 0.036
GCUGUCACCGGUGCUUGGUACGUUAUAUUCAGCCGGUCUGAUGAGUCUUGUCACAGACGAAACAGC [UGUCAC] | 2.03 ± 0.015 | 2.01 ± 0.021
GCUGUCACCGGUGCUUGGUACGUUAUAUUCAGCCGGUCUGAUGAGUCUUAAGCCAGACGAAACAGC [UAAGCC] | 2 ± 0.0023 | 2.03 ± 0.038
GCUGUCACCGGUGCUUGGUACGUUAUAUUCAGCCGGUCUGAUGAGUCUAGCACAAGACGAAACAGC [AGCACA] | 2.0177 ± 0.00097 | 2 ± 0.04

Variant | normalized RNA/DNA level without ligand (log10) ((6R,S)-folinic acid [1]) | normalized RNA/DNA level with ligand (log10) ((6R,S)-folinic acid [2])
GCUGUCACCGGUGCUUGGUACGUUAUAUUCAGCCGGUCUGAUGAGUCUCCUACGAGACGAAACAGC [CCUACG] | 2.072 ± 0.0081 | 2.0351 ± 0.0014
GCUGUCACCGGUGCUUGGUACGUUAUAUUCAGCCGGUCUGAUGAGUCUCCACACAGACGAAACAGC [CCACAC] | 1.99 ± 0.02 | 1.967 ± 0.0084
GCUGUCACCGGUGCUUGGUACGUUAUAUUCAGCCGGUCUGAUGAGUCUUUGACGAGACGAAACAGC [UUGACG] | 1.866 ± 0.0091 | 1.996 ± 0.019
GCUGUCACCGGUGCUUGGUACGUUAUAUUCAGCCGGUCUGAUGAGUCUGUCCAUAGACGAAACAGC [GUCCAU] | 1.9991 ± 3.5e-06 | 2.008 ± 0.016
GCUGUCACCGGUGCUUGGUACGUUAUAUUCAGCCGGUCUGAUGAGUCUAAUAGCAGACGAAACAGC [AAUAGC] | 1.985 ± 0.013 | 2 ± 0.058
GCUGUCACCGGUGCUUGGUACGUUAUAUUCAGCCGGUCUGAUGAGUCUCUCGCGAGACGAAACAGC [CUCGCG] | 2.038 ± 0.016 | 2.03 ± 0.038
GCUGUCACCGGUGCUUGGUACGUUAUAUUCAGCCGGUCUGAUGAGUCUCUAUAAAGACGAAACAGC [CUAUAA] | 1.984 ± 0.0043 | 1.978 ± 0.0033
GCUGUCACCGGUGCUUGGUACGUUAUAUUCAGCCGGUCUGAUGAGUCUUGAUUCAGACGAAACAGC [UGAUUC] | 2.058 ± 0.0048 | 2.04 ± 0.04
GCUGUCACCGGUGCUUGGUACGUUAUAUUCAGCCGGUCUGAUGAGUCUUAUCCCAGACGAAACAGC [UAUCCC] | 2.047 ± 0.0027 | 2.01 ± 0.042
GCUGUCACCGGUGCUUGGUACGUUAUAUUCAGCCGGUCUGAUGAGUCUGAGUUAAGACGAAACAGC [GAGUUA] | 2.008 ± 0.0034 | 2.03 ± 0.022
GCUGUCACCGGUGCUUGGUACGUUAUAUUCAGCCGGUCUGAUGAGUCUUGUUUCAGACGAAACAGC [UGUUUC] | 2.063 ± 0.0072 | 2.04 ± 0.027
GCUGUCACCGGUGCUUGGUACGUUAUAUUCAGCCGGUCUGAUGAGUCUACCGGAAGACGAAACAGC [ACCGGA] | 2.056 ± 0.0065 | 2.042 ± 0.013
GCUGUCACCGGUGCUUGGUACGUUAUAUUCAGCCGGUCUGAUGAGUCUAGUCGGAGACGAAACAGC [AGUCGG] | 1.938 ± 0.0053 | 2 ± 0.053
GCUGUCACCGGUGCUUGGUACGUUAUAUUCAGCCGGUCUGAUGAGUCUUAUCUAAGACGAAACAGC [UAUCUA] | 1.987 ± 0.0076 | 2.03 ± 0.028
GCUGUCACCGGUGCUUGGUACGUUAUAUUCAGCCGGUCUGAUGAGUCUUUACUAAGACGAAACAGC [UUACUA] | 1.978 ± 0.0023 | 2.01 ± 0.034
GCUGUCACCGGUGCUUGGUACGUUAUAUUCAGCCGGUCUGAUGAGUCUUGCACCAGACGAAACAGC [UGCACC] | 2.036 ± 0.0046 | 1.98 ± 0.028
GCUGUCACCGGUGCUUGGUACGUUAUAUUCAGCCGGUCUGAUGAGUCUUCGUUUAGACGAAACAGC [UCGUUU] | 1.99 ± 0.03 | 2.028 ± 0.0051
GCUGUCACCGGUGCUUGGUACGUUAUAUUCAGCCGGUCUGAUGAGUCUCGGACGAGACGAAACAGC [CGGACG] | 2.017 ± 0.012 | 2.02 ± 0.0049
GCUGUCACCGGUGCUUGGUACGUUAUAUUCAGCCGGUCUGAUGAGUCUGCUAGGAGACGAAACAGC [GCUAGG] | 1.951 ± 0.016 | 2.031 ± 0.0073
GCUGUCACCGGUGCUUGGUACGUUAUAUUCAGCCGGUCUGAUGAGUCUCGCAUCAGACGAAACAGC [CGCAUC] | 2.08 ± 0.021 | 1.97 ± 0.036

Source: the supplement of paper PMC6757056
